Assay results reported in US6875737.

Target: T cell receptor of the murine 2B4 T cell hybridoma
Assay: cell-based or functional assay

| IL-2 production in 2B4 cells: concentration needed for the maximum response, against 0.4 µM KbP-S-MCC (fold higher concentration) | IL-2 production in 2B4 cells at 0.4 µM KbP-S-MCC, against the maximum response obtained with the MCC peptide alone [fold] | Substance |
| --- | --- | --- |
| 10 |  | Moth cytochrome C peptide MCC 94-103 (from UniProt P00039 94-103) |
|  | > 2 | KbP-S-MCC (Lys-boroPro coupled through a spacer linker to the N terminus of moth cytochrome C peptide 94-103) (from UniProt P00039 94-103) |
